Data published in patent US20100311648A1 (AstraZeneca / MedImmune, published 2010).
Positions of bridges follow the written chain, without caps; N, C: chain ends. Non-standard residues stand in square brackets, D forms with d. dPhe(2-CF3) = N[C@H](Cc1ccccc1C(F)(F)F)C(=O)O; dPhe(3,4-F2) = N[C@H](Cc1ccc(F)c(F)c1)C(=O)O; dPhe(3,5-F2) = N[C@H](Cc1cc(F)cc(F)c1)C(=O)O; dPhe(4-CN) = N#Cc1ccc(C[C@@H](N)C(=O)O)cc1; dPhe(2-Cl) = N[C@H](Cc1ccccc1Cl)C(=O)O; dPhe(2-Me) = Cc1ccccc1C[C@@H](N)C(=O)O; dPhe(4-F) = N[C@H](Cc1ccc(F)cc1)C(=O)O; dPhe(2-F) = N[C@H](Cc1ccccc1F)C(=O)O; Orn = NCCC[C@H](N)C(=O)O

B1: Ac-Arg-cyclo(Glu-Ala-D-Phe(4-CN)-Arg-Trp-Orn)-NH2 (peptide)
peptide: Ac-REA[dPhe(4-CN)]RW[Orn]-NH2
modifications: lactam 2-7
SMILES: CC(=O)N[C@@H](CCCNC(=N)N)C(=O)N[C@H]1CCC(=O)NCCC[C@@H](C(N)=O)NC(=O)[C@H](Cc2c[nH]c3ccccc23)NC(=O)[C@H](CCCNC(=N)N)NC(=O)[C@@H](Cc2ccc(C#N)cc2)NC(=O)[C@H](C)NC1=O
notes: also called No. 41
B2: Ac-Arg-cyclo(Glu-Asn-D-Phe(2-Cl)-Arg-Trp-Orn)-NH2 (peptide)
peptide: Ac-REN[dPhe(2-Cl)]RW[Orn]-NH2
modifications: lactam 2-7
SMILES: CC(=O)N[C@@H](CCCNC(=N)N)C(=O)N[C@H]1CCC(=O)NCCC[C@@H](C(N)=O)NC(=O)[C@H](Cc2c[nH]c3ccccc23)NC(=O)[C@H](CCCNC(=N)N)NC(=O)[C@@H](Cc2ccccc2Cl)NC(=O)[C@H](CC(N)=O)NC1=O
notes: also called No. 84
B3: Ac-Arg-cyclo(Lys-Gln-D-Phe(4-CN)-Arg-Trp-Asp)-NH2 (peptide)
peptide: Ac-RKQ[dPhe(4-CN)]RWD-NH2
modifications: lactam 2-7
SMILES: CC(=O)N[C@@H](CCCNC(=N)N)C(=O)N[C@H]1CCCCNC(=O)C[C@@H](C(N)=O)NC(=O)[C@H](Cc2c[nH]c3ccccc23)NC(=O)[C@H](CCCNC(=N)N)NC(=O)[C@@H](Cc2ccc(C#N)cc2)NC(=O)[C@H](CCC(N)=O)NC1=O
notes: also called No. 93

target: T1, human melanocortin-4 receptor (human, UniProt P32245 1-332); assay: cell-based or functional assay
T1 sequence (P32245 whole entry): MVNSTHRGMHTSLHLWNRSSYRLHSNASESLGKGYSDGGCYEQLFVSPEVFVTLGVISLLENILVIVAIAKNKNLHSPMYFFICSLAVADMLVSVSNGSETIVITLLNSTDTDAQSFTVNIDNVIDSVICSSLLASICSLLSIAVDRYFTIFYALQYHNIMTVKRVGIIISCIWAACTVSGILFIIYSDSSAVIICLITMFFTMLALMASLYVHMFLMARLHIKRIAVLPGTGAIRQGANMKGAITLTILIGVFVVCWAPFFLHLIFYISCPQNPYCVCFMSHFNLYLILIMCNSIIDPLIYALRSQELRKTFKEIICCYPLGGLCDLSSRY

Binder	EC50, cAMP, 0.1 ng/mL Doxycycline [nM]	EC50, cAMP, 10 ng/mL Doxycycline [nM]	Intrinsic Activity, cAMP, 0.1 ng/mL Doxycycline [%]	Intrinsic Activity, cAMP, 10 ng/mL Doxycycline [%]
Ac-REQ[dPhe(2-Cl)]RW[Orn]-NH2 (lactam 2-7, also called No. 34) [Ac-Arg-cyclo(Glu-Gln-D-Phe(2-Cl)-Arg-Trp-Orn)-NH2]	1	0.137	79	97
B1		0.8	5	84
B2	0.633	0.09	78	97
Ac-REN[dPhe(4-CN)]RW[Orn]-NH2 (lactam 2-7; also: acetate salt, acetate salt form; also called Ex 43) [Ac-Arg-cyclo(Glu-Asn-D-Phe(4-CN)-Arg-Trp-Orn)-NH2]	1	0.177	43	100
Ac-RES[dPhe(2-F)]RW[Orn]-NH2 (lactam 2-7, also called No. 58) [Ac-Arg-cyclo(Glu-Ser-D-Phe(2-F)-Arg-Trp-Orn)-NH2]	5	0.25	67	100
Ac-R[Orn]N[dPhe(3,4-F2)]RWE-NH2 (lactam 2-7, also called No. 75) [Ac-Arg-cyclo(Orn-Asn-D-Phe(3,4-diF)-Arg-Trp-Glu)-NH2]	0.65	0.125	43	
Ac-R[Orn]N[dPhe(3,5-F2)]RWE-NH2 (lactam 2-7, also called No. 77) [Ac-Arg-cyclo(Orn-Asn-D-Phe(3,5-diF)-Arg-Trp-Glu)-NH2]	3	0.155	34	80
XDQXRWK (N-terminal Ac; D-Arg 1; D-Phe(3,4-diF) 4; lactam Asp 2-Lys 7; C-terminal NH2, also called No. 78) [Ac-D-Arg-cyclo(Asp-Gln-D-Phe(3,4-diF)-Arg-Trp-Lys)-NH2]	2	0.2	48	89
XDQXRWK (N-terminal Ac; D-Arg 1; D-Phe(4-CN) 4; lactam Asp 2-Lys 7; C-terminal NH2, also called No. 81) [Ac-D-Arg-cyclo(Asp-Gln-D-Phe(4-CN)-Arg-Trp-Lys)-NH2]	4	0.45	23	85
XDQXRWK (N-terminal Ac; D-Arg 1; D-Phe(2-F) 4; lactam Asp 2-Lys 7; C-terminal NH2, also called No. 82) [Ac-D-Arg-cyclo(Asp-Gln-D-Phe(2-F)-Arg-Trp-Lys)-NH2]	2	0.095	79	95
XDQXRWK (N-terminal Ac; D-Arg 1; D-Phe(4-F) 4; lactam Asp 2-Lys 7; C-terminal NH2, also called No. 83) [Ac-D-Arg-cyclo(Asp-Gln-D-Phe(4-F)-Arg-Trp-Lys)-NH2]	0.75	0.075	78	94
RDPXRWK (N-terminal Ac; D-Phe(4-F) 4; lactam Asp 2-Lys 7; C-terminal NH2, also called No. 103) [Ac-Arg-cyclo(Asp-Pro-D-Phe(4-F)-Arg-Trp-Lys)-NH2]	1	0.13	32	100
Ac-RDN[dPhe(4-CN)]RWK-NH2 (lactam 2-7, also called No. 89) [Ac-Arg-cyclo(Asp-Asn-D-Phe(4-CN)-Arg-Trp-Lys)-NH2]		17	6	87
RDQXRWK (N-terminal Ac; D-Phe(4-CN) 4; lactam Asp 2-Lys 7; C-terminal NH2, also called No. 90) [Ac-Arg-cyclo(Asp-Gln-D-Phe(4-CN)-Arg-Trp-Lys)-NH2]	4	0.283	31	96
Ac-R[Orn]N[dPhe(4-CN)]RWE-NH2 (lactam 2-7, also called No. 91) [Ac-Arg-cyclo(Orn-Asn-D-Phe(4-CN)-Arg-Trp-Glu)-NH2]	1	0.265	18	96
Ac-REQ[dPhe(4-F)]RW[Orn]-NH2 (lactam 2-7, also called No. 92) [Ac-Arg-cyclo(Glu-Gln-D-Phe(4-F)-Arg-Trp-Orn)-NH2]	0.1	0.04	81	89
B3	0.3	0.17	44	97
RDPXRWK (N-terminal Ac; D-Phe(2-F) 4; lactam Asp 2-Lys 7; C-terminal NH2) [Ac-Arg-cyclo(Asp-Pro-D-Phe(2-F)-Arg-Trp-Lys)-NH2]	191	10	16	100
Ac-REQ[dPhe(2-Me)]RW[Orn]-NH2 (lactam 2-7, also called No. 110) [Ac-Arg-cyclo(Glu-Gln-D-Phe(2-Me)-Arg-Trp-Orn)-NH2]	0.6	0.06	84	105
Ac-R[Orn]N[dPhe(2-Cl)]RWE-NH2 (lactam 2-7) [Ac-Arg-cyclo(Orn-Asn-D-Phe(2-Cl)-Arg-Trp-Glu)-NH2]	0.72	0.065		100
Ac-R[Orn]N[dPhe(2-CF3)]RWE-NH2 (lactam 2-7) [Ac-Arg-cyclo(Orn-Asn-D-Phe(2-CF3)-Arg-Trp-Glu)-NH2]	1	0.18	50	112

target: T1, human melanocortin-4 receptor; assay: [I125]-NDP-α-MSH competition, hMC4-R HEK-293 membranes
Experimental: (§1) A competitive inhibition binding assay was performed for exemplified peptides according to the invention using membrane homogenates prepared from HEK-293 cells that express recombinant hMC4-R, hMC3-R, or hMC5-R, and from B-16 mouse melanoma cells (containing endogenous MC1-R). In some instances, HEK-293 cells that express recombinant hMC1-R were employed. Assays were performed in 96 well GF/B Millipore multiscreen filtration plates (MAFB NOB10) pre-coated with 0.5% bovine serum albumin (Fraction V). […] After incubation for 60 minutes at 37° C., the assay mixture was filtered and the membranes washed three times with ice-cold buffer. Filters were dried and counted in a gamma counter for bound radioactivity. […] Each assay was conducted in triplicate and the actual mean values are described, with results less than 0% reported as 0%. Ki values for test peptides of the present invention were determined using Graph-Pad Prism® curve-fitting software.

Binder	Ki [nM]
Ac-REQ[dPhe(2-Cl)]RW[Orn]-NH2 (lactam 2-7, also called No. 34) [Ac-Arg-cyclo(Glu-Gln-D-Phe(2-Cl)-Arg-Trp-Orn)-NH2]	7
B1	3
B2	7
Ac-REN[dPhe(4-CN)]RW[Orn]-NH2 (lactam 2-7; also: acetate salt, acetate salt form; also called Ex 43) [Ac-Arg-cyclo(Glu-Asn-D-Phe(4-CN)-Arg-Trp-Orn)-NH2]	5
Ac-R[Orn]N[dPhe(3,4-F2)]RWE-NH2 (lactam 2-7, also called No. 75) [Ac-Arg-cyclo(Orn-Asn-D-Phe(3,4-diF)-Arg-Trp-Glu)-NH2]	3
Ac-R[Orn]N[dPhe(3,5-F2)]RWE-NH2 (lactam 2-7, also called No. 77) [Ac-Arg-cyclo(Orn-Asn-D-Phe(3,5-diF)-Arg-Trp-Glu)-NH2]	8
XDQXRWK (N-terminal Ac; D-Arg 1; D-Phe(3,4-diF) 4; lactam Asp 2-Lys 7; C-terminal NH2, also called No. 78) [Ac-D-Arg-cyclo(Asp-Gln-D-Phe(3,4-diF)-Arg-Trp-Lys)-NH2]	8
XDQXRWK (N-terminal Ac; D-Arg 1; D-Phe(4-CN) 4; lactam Asp 2-Lys 7; C-terminal NH2, also called No. 81) [Ac-D-Arg-cyclo(Asp-Gln-D-Phe(4-CN)-Arg-Trp-Lys)-NH2]	13
XDQXRWK (N-terminal Ac; D-Arg 1; D-Phe(2-F) 4; lactam Asp 2-Lys 7; C-terminal NH2, also called No. 82) [Ac-D-Arg-cyclo(Asp-Gln-D-Phe(2-F)-Arg-Trp-Lys)-NH2]	10
XDQXRWK (N-terminal Ac; D-Arg 1; D-Phe(4-F) 4; lactam Asp 2-Lys 7; C-terminal NH2, also called No. 83) [Ac-D-Arg-cyclo(Asp-Gln-D-Phe(4-F)-Arg-Trp-Lys)-NH2]	6
RDPXRWK (N-terminal Ac; D-Phe(4-F) 4; lactam Asp 2-Lys 7; C-terminal NH2, also called No. 103) [Ac-Arg-cyclo(Asp-Pro-D-Phe(4-F)-Arg-Trp-Lys)-NH2]	4
Ac-RDN[dPhe(4-CN)]RWK-NH2 (lactam 2-7, also called No. 89) [Ac-Arg-cyclo(Asp-Asn-D-Phe(4-CN)-Arg-Trp-Lys)-NH2]	48
RDQXRWK (N-terminal Ac; D-Phe(4-CN) 4; lactam Asp 2-Lys 7; C-terminal NH2, also called No. 90) [Ac-Arg-cyclo(Asp-Gln-D-Phe(4-CN)-Arg-Trp-Lys)-NH2]	5
Ac-R[Orn]N[dPhe(4-CN)]RWE-NH2 (lactam 2-7, also called No. 91) [Ac-Arg-cyclo(Orn-Asn-D-Phe(4-CN)-Arg-Trp-Glu)-NH2]	4
Ac-REQ[dPhe(4-F)]RW[Orn]-NH2 (lactam 2-7, also called No. 92) [Ac-Arg-cyclo(Glu-Gln-D-Phe(4-F)-Arg-Trp-Orn)-NH2]	2
B3	1
RDPXRWK (N-terminal Ac; D-Phe(2-F) 4; lactam Asp 2-Lys 7; C-terminal NH2) [Ac-Arg-cyclo(Asp-Pro-D-Phe(2-F)-Arg-Trp-Lys)-NH2]	78
Ac-R[Orn]N[dPhe(2-Cl)]RWE-NH2 (lactam 2-7) [Ac-Arg-cyclo(Orn-Asn-D-Phe(2-Cl)-Arg-Trp-Glu)-NH2]	7
Ac-R[Orn]N[dPhe(2-CF3)]RWE-NH2 (lactam 2-7) [Ac-Arg-cyclo(Orn-Asn-D-Phe(2-CF3)-Arg-Trp-Glu)-NH2]	5

target: T2, melanocortin-1 receptor (mouse (B-16 melanoma cells); in some …, UniProt Q01727 1-315); assay: [I125]-NDP-α-MSH competition, MC1-R membranes
T2 construct: whole, on cells; membrane homogenates; also called MC1-R; mouse B16 MC1-R
Experimental: as §1

T2 sequence (Q01727 whole entry): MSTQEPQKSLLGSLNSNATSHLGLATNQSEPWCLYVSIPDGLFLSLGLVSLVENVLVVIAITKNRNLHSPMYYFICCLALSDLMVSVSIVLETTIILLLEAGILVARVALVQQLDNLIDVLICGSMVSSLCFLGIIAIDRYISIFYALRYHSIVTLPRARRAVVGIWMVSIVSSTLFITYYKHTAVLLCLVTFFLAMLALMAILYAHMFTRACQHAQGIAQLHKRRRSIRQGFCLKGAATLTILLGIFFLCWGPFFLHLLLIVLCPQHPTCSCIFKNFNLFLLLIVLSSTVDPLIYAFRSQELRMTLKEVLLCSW

Binder	Ki [nM]
Ac-REQ[dPhe(2-Cl)]RW[Orn]-NH2 (lactam 2-7, also called No. 34) [Ac-Arg-cyclo(Glu-Gln-D-Phe(2-Cl)-Arg-Trp-Orn)-NH2]	128
B1	4300
B2	245
Ac-REN[dPhe(4-CN)]RW[Orn]-NH2 (lactam 2-7; also: acetate salt, acetate salt form; also called Ex 43) [Ac-Arg-cyclo(Glu-Asn-D-Phe(4-CN)-Arg-Trp-Orn)-NH2]	870
Ac-RES[dPhe(2-F)]RW[Orn]-NH2 (lactam 2-7, also called No. 58) [Ac-Arg-cyclo(Glu-Ser-D-Phe(2-F)-Arg-Trp-Orn)-NH2]	138
Ac-REQ[dPhe(2-Me)]RW[Orn]-NH2 (lactam 2-7, also called No. 110) [Ac-Arg-cyclo(Glu-Gln-D-Phe(2-Me)-Arg-Trp-Orn)-NH2]	105
